Laboratory results: the supplement of paper PMC9112550, “Optimization of the antimicrobial peptide Bac7 by deep mutational scanning” (BMC Biology, 2022)

The sequences below were run on Escherichia coli TOP10 (assay: shrunken log2 fold change of peptide-encoding DNA abundance (4.5 h post-induction vs induction); higher = less antimicrobial activity (less host growth inhibition)). Conditions: time post-induction: 4.5 h; library: site-saturation at positions 5, 18, 19, 20.
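Note: peptides expressed intracellularly from a pBAD plasmid library in pooled LB shake-flask culture, induced with 0.3% L-arabinose, DNA abundance read by NGS, three biological replicates, DESeq2 with apeglm shrinkage.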

Sequence	shrunken log2 fold change
RRIRCRPPRLPRPRPRPHHPPRP	-0.37
RRIRCRPPRLPRPRPRPHKPPRP	0.0762
RRIRCRPPRLPRPRPRPHLTPRP	-0.229
RRIRCRPPRLPRPRPRPHMHPRP	-0.527
RRIRCRPPRLPRPRPRPHPVPRP	-0.207
RRIRCRPPRLPRPRPRPHQSPRP	-0.0603
RRIRCRPPRLPRPRPRPHRWPRP	0.317
RRIRCRPPRLPRPRPRPHSHPRP	-0.307
RRIRCRPPRLPRPRPRPHSWPRP	-0.301
RRIRCRPPRLPRPRPRPHTHPRP	-0.676
RRIRCRPPRLPRPRPRPHVPPRP	-0.0309
RRIRCRPPRLPRPRPRPHVRPRP	-0.4
RRIRCRPPRLPRPRPRPHWFPRP	-0.0681
RRIRCRPPRLPRPRPRPHYMPRP	-0.308
RRIRCRPPRLPRPRPRPIAGPRP	0.195
RRIRCRPPRLPRPRPRPIDHPRP	-1.01
RRIRCRPPRLPRPRPRPIDYPRP	-0.651
RRIRCRPPRLPRPRPRPIFQPRP	-0.0452
RRIRCRPPRLPRPRPRPIHGPRP	-0.33
RRIRCRPPRLPRPRPRPIHPPRP	0.00281
RRIRCRPPRLPRPRPRPIICPRP	-0.442
RRIRCRPPRLPRPRPRPIIDPRP	-0.323
RRIRCRPPRLPRPRPRPIIKPRP	-1.01
RRIRCRPPRLPRPRPRPIKYPRP	-0.608
RRIRCRPPRLPRPRPRPILLPRP	-1.03

Sequence	shrunken log2 fold change
RRIRCRPPRLPRPRPRPILPPRP	-0.287
RRIRCRPPRLPRPRPRPIMVPRP	-0.115
RRIRCRPPRLPRPRPRPINHPRP	-0.607
RRIRCRPPRLPRPRPRPINKPRP	-1.19
RRIRCRPPRLPRPRPRPINNPRP	-0.633
RRIRCRPPRLPRPRPRPIPRPRP	0.73
RRIRCRPPRLPRPRPRPIRFPRP	-0.27
RRIRCRPPRLPRPRPRPIRPPRP	-0.0704
RRIRCRPPRLPRPRPRPIVNPRP	-0.239
RRIRCRPPRLPRPRPRPIWDPRP	0.166
RRIRCRPPRLPRPRPRPIWHPRP	-0.239
RRIRCRPPRLPRPRPRPIWVPRP	-0.0515
RRIRCRPPRLPRPRPRPIYKPRP	-0.559
RRIRCRPPRLPRPRPRPIYLPRP	-0.457
RRIRCRPPRLPRPRPRPKCEPRP	0.11
RRIRCRPPRLPRPRPRPKDKPRP	0.401
RRIRCRPPRLPRPRPRPKEGPRP	0.201
RRIRCRPPRLPRPRPRPKFMPRP	-0.527
RRIRCRPPRLPRPRPRPKLKPRP	-0.16
RRIRCRPPRLPRPRPRPKMYPRP	-0.342
RRIRCRPPRLPRPRPRPKPGPRP	0.503
RRIRCRPPRLPRPRPRPKPHPRP	0.398
RRIRCRPPRLPRPRPRPKQHPRP	0.189
RRIRCRPPRLPRPRPRPKRSPRP	0.235
RRIRCRPPRLPRPRPRPKTMPRP	-0.172

Sequence	shrunken log2 fold change
RRIRCRPPRLPRPRPRPKTSPRP	-0.179
RRIRCRPPRLPRPRPRPKVAPRP	-0.118
RRIRCRPPRLPRPRPRPKWPPRP	-0.0352
RRIRCRPPRLPRPRPRPKWRPRP	0.422
RRIRCRPPRLPRPRPRPKYCPRP	-0.264
RRIRCRPPRLPRPRPRPKYLPRP	-0.34
RRIRCRPPRLPRPRPRPKYSPRP	-0.898
RRIRCRPPRLPRPRPRPLAEPRP	0.242
RRIRCRPPRLPRPRPRPLDAPRP	0.123
RRIRCRPPRLPRPRPRPLEIPRP	-0.164
RRIRCRPPRLPRPRPRPLEYPRP	-0.0414
RRIRCRPPRLPRPRPRPLHCPRP	-0.1
RRIRCRPPRLPRPRPRPLHWPRP	0.467
RRIRCRPPRLPRPRPRPLKGPRP	-0.204
RRIRCRPPRLPRPRPRPLMSPRP	-0.289
RRIRCRPPRLPRPRPRPLQQPRP	0.178
RRIRCRPPRLPRPRPRPLRRPRP	0.519
RRIRCRPPRLPRPRPRPLSEPRP	-0.219
RRIRCRPPRLPRPRPRPLTGPRP	-0.994
RRIRCRPPRLPRPRPRPLVEPRP	0.102
RRIRCRPPRLPRPRPRPLVWPRP	0.207
RRIRCRPPRLPRPRPRPLWHPRP	-0.091
RRIRCRPPRLPRPRPRPLWLPRP	-0.0572
RRIRCRPPRLPRPRPRPMAVPRP	0.0112
RRIRCRPPRLPRPRPRPMDPPRP	-0.543

Sequence	shrunken log2 fold change
RRIRCRPPRLPRPRPRPMEGPRP	-0.00776
RRIRCRPPRLPRPRPRPMFHPRP	-0.723
RRIRCRPPRLPRPRPRPMFSPRP	-0.48
RRIRCRPPRLPRPRPRPMHNPRP	-0.293
RRIRCRPPRLPRPRPRPMIHPRP	-0.466
RRIRCRPPRLPRPRPRPMIKPRP	-0.497
RRIRCRPPRLPRPRPRPMLAPRP	0.379
RRIRCRPPRLPRPRPRPMLHPRP	-0.378
RRIRCRPPRLPRPRPRPMLLPRP	0.00507
RRIRCRPPRLPRPRPRPMLQPRP	0.0596
RRIRCRPPRLPRPRPRPMMQPRP	0.0143
RRIRCRPPRLPRPRPRPMMYPRP	-0.12
RRIRCRPPRLPRPRPRPMNAPRP	-0.422
RRIRCRPPRLPRPRPRPMNRPRP	-0.35
RRIRCRPPRLPRPRPRPMQSPRP	-0.0765
RRIRCRPPRLPRPRPRPMREPRP	0.907
RRIRCRPPRLPRPRPRPMRLPRP	0.0914
RRIRCRPPRLPRPRPRPMSYPRP	-0.23
RRIRCRPPRLPRPRPRPMVPPRP	-0.354
RRIRCRPPRLPRPRPRPMWDPRP	-0.317
RRIRCRPPRLPRPRPRPMWTPRP	-0.0185
RRIRCRPPRLPRPRPRPMYEPRP	-0.264
RRIRCRPPRLPRPRPRPNAQPRP	0.164
RRIRCRPPRLPRPRPRPNCAPRP	0.00777
RRIRCRPPRLPRPRPRPNCLPRP	-0.19

Sequence	shrunken log2 fold change
RRIRCRPPRLPRPRPRPNCVPRP	-0.00701
RRIRCRPPRLPRPRPRPNEFPRP	0.159
RRIRCRPPRLPRPRPRPNFQPRP	-0.438
RRIRCRPPRLPRPRPRPNGMPRP	-0.398
RRIRCRPPRLPRPRPRPNGRPRP	0.0604
RRIRCRPPRLPRPRPRPNHDPRP	-0.589
RRIRCRPPRLPRPRPRPNHEPRP	-0.15
RRIRCRPPRLPRPRPRPNIGPRP	-0.138
RRIRCRPPRLPRPRPRPNKGPRP	-0.302
RRIRCRPPRLPRPRPRPNKYPRP	-0.324
RRIRCRPPRLPRPRPRPNLDPRP	-0.478
RRIRCRPPRLPRPRPRPNLFPRP	-0.932
RRIRCRPPRLPRPRPRPNLMPRP	-0.323
RRIRCRPPRLPRPRPRPNMEPRP	-0.237
RRIRCRPPRLPRPRPRPNMIPRP	-0.829
RRIRCRPPRLPRPRPRPNNSPRP	-0.743
RRIRCRPPRLPRPRPRPNPEPRP	0.448
RRIRCRPPRLPRPRPRPNQAPRP	-0.146
RRIRCRPPRLPRPRPRPNRDPRP	-0.167
RRIRCRPPRLPRPRPRPNRGPRP	-0.00554
RRIRCRPPRLPRPRPRPNRLPRP	-0.00311
RRIRCRPPRLPRPRPRPNRMPRP	2.23
RRIRCRPPRLPRPRPRPNSTPRP	-0.76
RRIRCRPPRLPRPRPRPNSWPRP	0.0889
RRIRCRPPRLPRPRPRPNTLPRP	-0.535

Sequence	shrunken log2 fold change
RRIRCRPPRLPRPRPRPNTVPRP	-0.768
RRIRCRPPRLPRPRPRPNVMPRP	-0.337
RRIRCRPPRLPRPRPRPNYRPRP	-0.077
RRIRCRPPRLPRPRPRPPAEPRP	1.18
RRIRCRPPRLPRPRPRPPAIPRP	0.532
RRIRCRPPRLPRPRPRPPDFPRP	-0.00542
RRIRCRPPRLPRPRPRPPDRPRP	0.394
RRIRCRPPRLPRPRPRPPEFPRP	0.0967
RRIRCRPPRLPRPRPRPPEGPRP	0.926
RRIRCRPPRLPRPRPRPPFQPRP	0.149
RRIRCRPPRLPRPRPRPPGCPRP	0.412
RRIRCRPPRLPRPRPRPPHDPRP	1.83
RRIRCRPPRLPRPRPRPPHLPRP	0.079
RRIRCRPPRLPRPRPRPPHSPRP	0.395
RRIRCRPPRLPRPRPRPPISPRP	-0.38
RRIRCRPPRLPRPRPRPPKDPRP	0.261
RRIRCRPPRLPRPRPRPPKGPRP	0.405
RRIRCRPPRLPRPRPRPPKHPRP	0.203
RRIRCRPPRLPRPRPRPPLTPRP	0.578
RRIRCRPPRLPRPRPRPPLVPRP	0.584
RRIRCRPPRLPRPRPRPPMIPRP	-0.0902
RRIRCRPPRLPRPRPRPPMVPRP	-0.147
RRIRCRPPRLPRPRPRPPPWPRP	1.06
RRIRCRPPRLPRPRPRPPQHPRP	0.49
RRIRCRPPRLPRPRPRPPQPPRP	0.858
